The target of this test is T1, NIM450 bait (first 450 amino acids of the NIM1 protein, LexA fusion) (Arabidopsis, UniProt P0A7C2 1-202; P93002 1-450).
T1 construct: The LexA fusion is stated outright only for the full-length bait
T1 sequence (looked up): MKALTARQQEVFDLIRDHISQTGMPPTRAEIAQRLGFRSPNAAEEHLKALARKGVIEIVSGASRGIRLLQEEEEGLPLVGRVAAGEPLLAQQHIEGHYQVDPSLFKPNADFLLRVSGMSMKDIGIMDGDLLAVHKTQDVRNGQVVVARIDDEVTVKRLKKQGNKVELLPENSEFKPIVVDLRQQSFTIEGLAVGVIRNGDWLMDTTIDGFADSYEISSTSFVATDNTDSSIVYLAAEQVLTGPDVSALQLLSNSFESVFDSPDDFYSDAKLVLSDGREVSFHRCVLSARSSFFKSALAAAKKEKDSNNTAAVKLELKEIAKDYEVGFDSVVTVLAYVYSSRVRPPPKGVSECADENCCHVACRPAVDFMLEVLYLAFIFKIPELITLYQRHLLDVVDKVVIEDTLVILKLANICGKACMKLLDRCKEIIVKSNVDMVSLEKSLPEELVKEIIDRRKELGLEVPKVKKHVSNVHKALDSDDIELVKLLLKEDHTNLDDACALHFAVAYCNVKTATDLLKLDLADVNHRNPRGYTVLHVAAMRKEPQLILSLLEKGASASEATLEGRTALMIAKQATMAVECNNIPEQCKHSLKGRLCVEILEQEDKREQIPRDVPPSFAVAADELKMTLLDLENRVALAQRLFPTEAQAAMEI
The test is described as follows: yeast two-hybrid (LexA bait, B42 prey; Leu2 and LacZ reporters).

Protocol: These baits are transformed into yeast strain EGY188, which contains a low sensitivity LexA operator fused to the Leu2 gene, and appropriate tests are performed to determine whether the NIM1 fusion proteins intrinsically activate expression of the yeast reporter genes. […] The library is transformed in combination with one of the three NIM1 baits above and a plasmid containing 2 LexA operators fused to LacZ as a secondary reporter. Approximately 10⁶ transformants are analyzed in screens with each bait, and individual clones that activate both the Leu2 and LacZ reporters are isolated and sequenced by standard procedures.

B1: NI16 clone (Arabidopsis NI16 cDNA clone from the pJG4-5 library, fused to the B42 transcriptional activation domain) (other, not shown: large carriers)
chain: MNNSLKKEERVEEDNGKSDGNRGKPSTEVVRTVTEEEVDEFFKILRRVHVATRTVAKVNGGVAEGELPSKKRKRSQNLGLRNSLDCNGVRDGEFDEINRVGLQGLGLDLNCKPEPDSVSLSL
notes: also called NI16 protein
As for B1, the binding result was “no binding”.

(Values after US20040154051A1 (SYNGENTA PARTICIPATIONS, published 2004).)
